Molecular target: T1, Keap1 Kelch domain (amino acid residues 309 to 624) (human, UniProt Q14145 309-624)
T1 construct: Keap1, Kelch domain, Gene ID 9817 (the human gene), amino acid residues 309 to 624; The species is not put in words; it follows from the printed Gene ID 9817; also called Kelch domain of Keap1; source: E. coli BL21 (Codonplus), purified (Ni-NTA, HiTrap QHP, Superdex 200 Increase)
Assay: native gel or EMSA; purified Kelch, Δ54‐PGAM5 and ponicidin incubated on ice for 30 min; 7% non‐denatured gel, 4 °C, 90 V, 1 h; Coomassie staining
Settings: both partners purified

T1 sequence (Q14145 309-624): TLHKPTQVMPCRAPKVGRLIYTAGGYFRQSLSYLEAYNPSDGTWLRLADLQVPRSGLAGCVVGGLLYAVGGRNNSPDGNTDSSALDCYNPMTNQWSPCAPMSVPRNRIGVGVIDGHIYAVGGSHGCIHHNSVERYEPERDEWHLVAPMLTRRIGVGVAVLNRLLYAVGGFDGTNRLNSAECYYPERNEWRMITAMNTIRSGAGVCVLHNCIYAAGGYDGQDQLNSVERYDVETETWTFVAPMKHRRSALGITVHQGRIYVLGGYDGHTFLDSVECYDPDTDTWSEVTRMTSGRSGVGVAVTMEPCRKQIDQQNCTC

binding result: binds
B1: ∆54‐PGAM5 (amino acids from number 54 to 289) (domain or fragment, human, UniProt Q96HS1 54-289, looked up)
chain: GPGVWDPNWDRREPLSLINVRKRNVESGEEELASKLDHYKAKATRHIFLIRHSQYHVDGSLEKDRTLTPLGREQAELTGLRLASLGLKFNKIVHSSMTRAIETTDIISRHLPGVCKVSTDLLREGAPIEPDPPVSHWKPEAVQYYEDGARIEAAFRNYIHRADARQEEDSYEIFICHANVIRYIVCRALQFPPEGWLRLSLNNGSITHLVIRPNGRVALRTLGDTGFMPPDKITRS
notes: PGAM5, Gene ID 192111 (the human gene), amino acid residues 54 to 289; The species is not put in words; it follows from the printed Gene ID 192111; also called Δ54‐PGAM5; PGAM5 domain; source: E. coli BL21 (Codonplus), purified (Ni-NTA, HiTrap QHP, Superdex 200 Increase)

From paper PMC11481384, “Ponicidin Promotes Hepatocellular Carcinoma Mitochondrial Apoptosis by Stabilizing Keap1‐PGAM5 Complex” (Advanced Science, 2024)
